# Measured values published in the supplement of paper PMC10724198.
# ± gives the standard deviation of the averaged measurements.
# Test system: Saccharomyces cerevisiae
# Test: protein stability index of tFT-peptide fusion (C-terminal peptide) (PSI (0-1 scale)); higher = more stable (slower turnover)
# Conditions: genetic background: wild type; temperature: 30 C
# 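Further: PSI is a weighted mean of sequencing reads over stability bins, variants kept only with over 10 reads, mCherry proximal and sfGFP distal, peptide attached via GGGS linker.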
row,Sequence,protein stability index
1,PPPPPLPLPPPF,0.697 ± 0.023
2,CGFFSGLLYFSL,0.586 ± 0.028
3,VSRWVVCRGGLW,0.65 ± 0.078
4,SLCWDVLFLPVV,0.736 ± 0.064
5,KNRKKIKIVCVK,0.559 ± 0.026
6,ALSPAPGTSLMR,0.69 ± 0.016
7,PFFSFLYPRFYF,0.682 ± 0.0096
8,AGWCWVWGVELV,0.687 ± 0.04
9,KTKKKRKQKGKQ,0.684 ± 0.064
10,VFRPFVLPLMFP,0.611 ± 0.053
11,FALPSASHFPVP,0.7289 ± 0.0046
12,GYGPSFALRPDS,0.651 ± 0.026
13,YWFVFGEFSGGR,0.716 ± 0.042
14,SPPSLYRRVRPS,0.63 ± 0.084
15,VCNFQIGGDRGV,0.71 ± 0.052
16,PTPLPHTRATPT,0.778 ± 0.015
17,KKKKKKGKGAKT,0.617 ± 0.011
18,LTSDGGLSGCSL,0.67 ± 0.029
19,MRWVISEDPGFR,0.695 ± 0.018
20,GGLVPPLEGLVR,0.677 ± 0.037
21,MESIIHPNSGIV,0.744 ± 0.13
22,PLPLPPSVTSLL,0.729 ± 0.044
23,GLGVPWVRWGWV,0.632 ± 0.019
24,FCSCLCGGEFVR,0.69 ± 0.03
25,NAKQVYVSVMTR,0.5 ± 0.063
26,GKKTTQELGKTK,0.803 ± 0.13

row,Sequence,protein stability index
1,DVGFGWGCGVGG,0.736 ± 0.014
2,ERLLLGLNRRLG,0.643 ± 0.055
3,KERYKNHGQKAS,0.683 ± 0.017
4,HHRNNTPLNHSY,0.63 ± 0.007
5,RLVDCDLTDKWH,0.696 ± 0.018
6,CSLRSSGLGFKQ,0.62 ± 0.072
7,TPPCACTPPRAP,0.686 ± 0.081
8,SRGGSGKDTGRT,0.657 ± 0.04
9,VSWGVALAVLRT,0.603 ± 0.029
10,PLALPLPRLVLP,0.643 ± 0.026
11,NWLYPYSLRRRG,0.663 ± 0.13
12,LLILGTPKQDSR,0.67 ± 0.036
13,GWGGGGFRVVVG,0.782 ± 0.049
14,VLSSPPVPAPRP,0.701 ± 0.051
15,RSSECNQLYTHK,0.682 ± 0.065
16,VCVCSVPNLGLW,0.675 ± 0.029
17,GGGGGASMSGTP,0.687 ± 0.017
18,LPRLHLSPASPP,0.611 ± 0.048
19,DFQRPGSFVFNG,0.658 ± 0.048
20,RAKGILPESEQI,0.72 ± 0.035
21,LRAVCDLTGSRV,0.68 ± 0.072
22,ILPFSGLAFFLP,0.677 ± 0.039
23,VGRENNENREEE,0.629 ± 0.021
24,ACPCTLCMALSR,0.6476 ± 0.0014
25,NKDQKTKKNKRK,0.661 ± 0.075
26,LGKIYPFYSILL,0.7038 ± 0.002

row,Sequence,protein stability index
1,GRNLFGLLWARP,0.721 ± 0.0094
2,TQYTDNQTPITK,0.6673 ± 0.0027
3,LGLLGSLRTLSF,0.667 ± 0.14
4,CLDRRCTSRGCI,0.717 ± 0.03
5,KREQKPHPKLKL,0.5682 ± 0.0021
6,LLPPPVFPPLSP,0.753 ± 0.013
7,RGGARGRQGCGG,0.765 ± 0.034
8,LSPSDSPSPPAS,0.6499 ± 0.0016
9,GLLGFVLSKDST,0.719 ± 0.052
10,SASVLVLRRSSP,0.732 ± 0.074
11,PPVGPPFPPLPH,0.784 ± 0.13
12,LHPPPPPPALTP,0.729 ± 0.068
13,KGKGREEEDISK,0.674 ± 0.015
14,PLRSPSYPPPPP,0.6814 ± 0.00091
15,DRVFLVDMGVMW,0.6632 ± 0.0014
16,LGRFRLSRREGG,0.6706 ± 0.0043
17,YCGLQSWLGVGG,0.677 ± 0.0076
18,SPTSPAPPPNAS,0.67 ± 0.0092
19,GTRWPLVAPRER,0.7254 ± 0.0045
20,PPTPRPHPPSRP,0.758 ± 0.022
21,SRHVAGVGGGEV,0.652 ± 0.019
22,GVAEFDGWFCLG,0.7329 ± 0.0022
23,PPPRPHTPPQLA,0.708 ± 0.019
24,SMYLPSSSDVLS,0.736 ± 0.014
25,CRTSRSSSLPPY,0.7218 ± 0.0054
26,VLMGGCGSWMAV,0.6771 ± 0.0044

row,Sequence,protein stability index
1,GQIKIRAFPKSR,0.662 ± 0.052
2,RGIFLGVCALDY,0.696 ± 0.0085
3,SRFEPLSCEQCS,0.66 ± 0.05
4,WCGKVVVGSRQG,0.68 ± 0.032
5,LVKKVKSSLASL,0.65 ± 0.076
6,PPPPHTPPLPRS,0.757 ± 0.048
7,SLMLDGRSTKAA,0.6912 ± 0.0035
8,SPAARPLFRTIS,0.61 ± 0.054
9,AIACYLGLTSYP,0.647 ± 0.021
10,KKKKKQKKKKKK,0.643 ± 0.048
11,FLSEFFMPSPFP,0.745 ± 0.097
12,ELRLYFPRLFQF,0.496 ± 0.0078
13,VVGRLRGNWGSI,0.745 ± 0.039
14,LRGRRPFSQRAT,0.662 ± 0.034
15,PPPSLPATPIPP,0.656 ± 0.055
16,DCRPNIRSRVSG,0.785 ± 0.18
17,KKKKKKTKKKNK,0.719 ± 0.016
18,ITVFRAEVRTKK,0.6846 ± 0.0054
19,ICLLGTSSQRRD,0.705 ± 0.0077
20,PPMALPELPLFP,0.738 ± 0.071
21,ASGAPGRGRGVV,0.697 ± 0.083
22,KRGGRGEKAEGK,0.655 ± 0.024
23,GGGGGFAPGVTG,0.698 ± 0.046
